Reference: PMC10160976 (Proceedings of the National Academy of Sciences of the …, 2023)

T1: human LPL^S132A/R297A (inactive lipoprotein lipase mutant) (human, UniProt P06858 28-475, S132A | R297A)
T1 sequence (looked up): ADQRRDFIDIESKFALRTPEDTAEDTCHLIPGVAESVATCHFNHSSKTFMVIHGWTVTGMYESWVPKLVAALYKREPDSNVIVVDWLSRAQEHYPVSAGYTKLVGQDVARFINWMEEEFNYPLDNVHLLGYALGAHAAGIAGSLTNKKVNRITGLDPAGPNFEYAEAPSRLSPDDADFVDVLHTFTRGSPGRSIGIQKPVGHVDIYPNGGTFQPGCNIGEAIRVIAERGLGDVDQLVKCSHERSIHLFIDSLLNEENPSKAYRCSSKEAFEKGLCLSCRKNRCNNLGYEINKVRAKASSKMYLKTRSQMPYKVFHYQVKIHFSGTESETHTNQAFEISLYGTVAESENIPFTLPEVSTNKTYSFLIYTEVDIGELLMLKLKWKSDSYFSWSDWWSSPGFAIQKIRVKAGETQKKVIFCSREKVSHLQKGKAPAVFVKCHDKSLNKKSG


Columns and labels:
[1] = target: T1, human LPL^S132A/R297A (inactive …); assay: cell-based or functional assay
[2] = target: T1, human LPL^S132A/R297A (inactive …); assay: HDX-MS

| binding result [2] | Binder | onset of LPL aggregation (turbidity, proxy for Tm) against APOC2^Q70E [1] [°C] |
| --- | --- | --- |
|  | APOC2^wt (apolipoprotein C2, N-terminal 6xHis-tag) (natural protein, UniProt P02655 23-101, looked up) TQQPQQDEMPSPTFLTQVKESLSSYWESAKTAAQNLYEKTYLPAVDEKLRDLYSKSTAAMSTYTGIFTDQVLSVLKGEE | > 20 |
| binds | soluble truncated human GPIHBP1 (residues 1 to 131) (domain or fragment, UniProt Q8IV16 21-151, looked up) QTQQEEEEEDEDHGPDDYDEEDEDEVEEEETNRLPGGRSRVLLRCYTCKSLPRDERCNLTQNCSHGQTCTTLIAHGNTESGLLTTHSTWCTDSCQPITKTVEGTQVTMTCCQSSLCNVPPWQSSRVQDPTG |  |
